The results in this text go back to paper doi:10.1101/2025.05.28.656718 (bioRxiv, 2025).

A word on the Kd: it is the free concentration of one partner at which half of the binding sites on the other are occupied at equilibrium, for simple one-to-one binding. Usually IC50 stands for the concentration at which inhibition is half-maximal.

The chains are these.
B1: Recombinant PKM2 (His-SUMO tag removed) (enzyme)
chain: not shown
B2: Recombinant SARM1 (affinity tags removed by TEV protease) (natural protein, human, UniProt Q6SZW1 28-724, looked up)
chain: LAVPGPDGGGGTGPWWAAGGRGPREVSPGAGTEVQDALERALPELQQALSALKQAGGARAVGAGLAEVFQLVEEAWLLPAVGREVAQGLCDAIRLDGGLDLLLRLLQAPELETRVQAARLLEQILVAENRDRVARIGLGVILNLAKEREPVELARSVAGILEHMFKHSEETCQRLVAAGGLDAVLYWCRRTDPALLRHCALALGNCALHGGQAVQRRMVEKRAAEWLFPLAFSKEDELLRLHACLAVAVLATNKEVEREVERSGTLALVEPLVASLDPGRFARCLVDASDTSQGRGPDDLQRLVPLLDSNRLEAQCIGAFYLCAEAAIKSLQGKTKVFSDIGAIQSLKRLVSYSTNGTKSALAKRALRLLGEEVPRPILPSVPSWKEAEVQTWLQQIGFSKYCESFREQQVDGDLLLRLTEEELQTDLGMKSGITRKRFFRELTELKTFANYSTCDRSNLADWLGSLDPRFRQYTYGLVSCGLDRSLLHRVSEQQLLEDCGIHLGVHRARILTAAREMLHSPLPCTGGKPSGDTPDVFISYRRNSGSQLASLLKVHLQLHGFSVFIDVEKLEAGKFEDKLIQSVMGARNFVLVLSPGALDKCMQDHDCKDWVHKEIVTALSCGKNIVPIIDGFEWPEPQVLPEDMQAVLTFNGIKWSHEYQEATIEKIIRFLQGRSSRDSSAGSDTSLEGAAPMGPT
B3: Recombinant PKM1 (His-SUMO tag removed) (enzyme)
chain: not shown

Test [1] has as its target B2. As to the kind of experiment: SPR.
In another test the target is His-tagged PKM1 (human, UniProt P14618-2 1-531). As to the kind of experiment: AlphaScreen or HTRF.

Consider B1, for which the equilibrium dissociation constant (Kd) in test [1] turned out to be 1310 nM.
In the test with His-tagged PKM1, B2 yielded an IC50 of 3460 nM.
For B3, in test [1], the Kd amounted to 2890 nM.
